Target: HDAC1-flag (Homo sapiens (Human), UniProt Q13547 1-482)
Test: cell-based or functional assay

Chain of HDAC1-flag (Q13547 whole entry, form in doubt): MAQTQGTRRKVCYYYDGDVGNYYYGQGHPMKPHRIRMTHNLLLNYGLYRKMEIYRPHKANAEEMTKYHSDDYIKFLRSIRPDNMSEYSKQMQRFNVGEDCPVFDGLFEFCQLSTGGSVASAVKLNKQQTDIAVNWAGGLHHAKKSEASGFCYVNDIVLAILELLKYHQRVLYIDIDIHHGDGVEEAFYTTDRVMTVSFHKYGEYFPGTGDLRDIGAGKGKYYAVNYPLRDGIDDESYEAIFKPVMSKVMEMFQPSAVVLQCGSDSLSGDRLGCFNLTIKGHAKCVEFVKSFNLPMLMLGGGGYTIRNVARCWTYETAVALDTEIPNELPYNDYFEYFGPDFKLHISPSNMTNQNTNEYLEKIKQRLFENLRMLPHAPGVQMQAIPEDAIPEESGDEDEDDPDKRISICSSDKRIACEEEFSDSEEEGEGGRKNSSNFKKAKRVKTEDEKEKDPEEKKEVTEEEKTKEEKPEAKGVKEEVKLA

HDAC1 activity: release of acetic acid from a [3H]acetyl-labeled Histone H4 peptide by immunoprecipitated HDAC1: ~4 fold
B1: V5-APPL (full length APPL) (other, not shown: small tags and cut ends)
chain: MPGIDKLPIEETLEDSPQTRSLLGVFEEDATAISNYMNQLYQAMHRIYDAQNELSAATHLTSKLLKEYEKQRFPLGGDDEVMSSTLQQFSKVIDELSSCHAVLSTQLADAMMFPITQFKERDLKEILTLKEVFQIASNDHDAAINRYSRLSKKRENDKVKYEVTEDVYTSRKKQHQTMMHYFCALNTLQYKKKIALLEPLLGYMQAQISFFKMGSENLNEQLEEFLANIGTSVQNVRREMDSDIETMQQTIEDLEVASDPLYVPDPDPTKFPVNRNLTRKAGYLNARNKTGLVSSTWDRQFYFTQGGNLMSQARGDVAGGLAMDIDNCSVMAVDCEDRRYCFQITSFDGKKSSILQAESKKDHEEWICTINNISKQIYLSENPEETAARVNQSALEAVTPSPSFQQRHESLRPAAGQSRPPTARTSSSGSLGSESTNLAALSLDSLVAPDTPIQFDIISPVCEDQPGQAKAFGQGGRRTNPFGESGGSTKSETEDSILHQLFIVRFLGSMEVKSDDHPDVVYETMRQILAARAIHNIFRMTESHLLVTCDCLKLIDPQTQVTRLTFPLPCVVLYATHQENKRLFGFVLRTSSGRSESNLSSVCYIFESNNEGEKICDSVGLAKQIALHAELDRRASEKQKEIERVKEKQQKELNKQKQIEKDLEEQSRLIAASSRPNQASSEGQFVVLSSSQSEESDLGEGGKKRESEA
